Results taken from patent publication US9878045B2, “Triorthogonal reagents for dual protein conjugation” (REGENTS OF THE UNIVERSITY OF MINNESOTA, priority 2013, dated 2018).

T1: PFTase (Saccharomyces cerevisiae, UniProt P22007+P29703)
T1 sequence (P22007 1-431): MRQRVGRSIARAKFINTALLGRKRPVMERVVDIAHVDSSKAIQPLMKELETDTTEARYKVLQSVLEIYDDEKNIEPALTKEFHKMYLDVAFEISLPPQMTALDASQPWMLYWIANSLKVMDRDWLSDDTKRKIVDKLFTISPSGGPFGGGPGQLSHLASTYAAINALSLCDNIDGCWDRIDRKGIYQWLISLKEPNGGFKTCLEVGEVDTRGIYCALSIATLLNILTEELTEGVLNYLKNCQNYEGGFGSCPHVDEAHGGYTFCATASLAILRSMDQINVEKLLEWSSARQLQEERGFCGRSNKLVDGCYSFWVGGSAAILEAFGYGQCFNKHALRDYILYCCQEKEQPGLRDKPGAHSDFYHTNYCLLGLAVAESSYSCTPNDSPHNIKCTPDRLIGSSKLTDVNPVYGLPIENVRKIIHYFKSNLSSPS
T1 sequence (P29703 1-316): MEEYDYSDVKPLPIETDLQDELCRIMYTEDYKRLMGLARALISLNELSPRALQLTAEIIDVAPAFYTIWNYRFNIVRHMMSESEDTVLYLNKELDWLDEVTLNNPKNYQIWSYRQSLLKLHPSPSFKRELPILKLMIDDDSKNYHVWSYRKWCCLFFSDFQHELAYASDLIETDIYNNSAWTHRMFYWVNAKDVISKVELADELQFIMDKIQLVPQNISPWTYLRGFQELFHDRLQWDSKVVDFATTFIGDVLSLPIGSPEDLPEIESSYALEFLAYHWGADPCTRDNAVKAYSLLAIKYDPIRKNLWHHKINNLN


Columns and labels:
Test in all cases: Continuous fluorescence-based PFTase enzyme assay, prenylation of N-dansyl-GCVIA (2)
Assay type in all cases: biochemical, Yeast
[1] = molecular target: T1, PFTase
Protocol: (§1) Next, a kinetic analysis of that reaction was performed using varying concentrations of 1 and N-dansyl-GCVIA (SEQ ID NO: 2) (2) in the presence of PFTase showing that the enzymatic process obeyed saturation kinetics. Steady-state kinetic parameters for the prenylation reaction using the bifunctional aldehyde-alkyne analogue are shown in FIG. 4. […] Nevertheless, despite this lower activity with 1, using elevated levels of PFTase (200 nM), it is relatively easy to drive these enzymatic reactions to completion in 2 hours.
Enzymatic reaction mixtures contained Tris.HCl (50 mM, pH 7.5), MgCl2 (10 mM), ZnCl2 (10 μM), DTT (5.0 mM), 2.4 μN-dansyl-GCVIA (SEQ ID NO: 2) (2), 0.040% (w/v) n-dodecyl-β-D-maltoside PFTase (80 nM), and varying concentrations of 1 (0-50 μM), in a final volume of 250 μL. The reaction mixtures were equilibrated at 30 ° C. for 1 min, initiated by the addition of PFTase, and monitored for an increase in fluorescence (λex=340 nm, λem=505 nm) for approximately 20 min. The initial rates of formation of products were obtained as slopes in IU/min using least squares analysis. Corrections were applied to all the rate calculations based on the difference between the fluorescence intensity of the prenylated product and the starting peptide. Assuming 100% conversion, the difference corresponds only to the fluorescence of the total amount of the product. […]

[2] = substrate: C#Cc1cc(C=O)cc(OC/C(C)=C/CC/C(C)=C/COP(=O)(O)OP(=O)(O)O)c1; details: other: single peptide concentration 2.4 μM; pH 7.5; 30.0 °C
Protocol: as §1
(§2) Enzymatic reaction mixtures contained Tris.HCl (50 mM, pH 7.5), MgCl2 (10 mM), ZnCl2 (10 μM), DTT (5.0 mM), 2.4 μN-dansyl-GCVIA (SEQ ID NO: 2) (2), 0.040% (w/v) n-dodecyl-β-D-maltoside PFTase (80 nM), and varying concentrations of 1 (0-50 μM), in a final volume of 250 μL. The reaction mixtures were equilibrated at 30 ° C. for 1 min, initiated by the addition of PFTase, and monitored for an increase in fluorescence (λex=340 nm, λem=505 nm) for approximately 20 min. The initial rates of formation of products were obtained as slopes in IU/min using least squares analysis. Corrections were applied to all the rate calculations based on the difference between the fluorescence intensity of the prenylated product and the starting peptide. Assuming 100% conversion, the difference corresponds only to the fluorescence of the total amount of the product. The slope was then divided by the fluorescence difference followed by multiplying by the total concentration of peptide (2.4 μM) which then gives the rate of formation of product in μM/s. It should be noted that the KM values reported here are actually apparent KM values, since the measurements were performed in only a single peptide concentration. The data were fit to a Michaelis-Menten model
(§3) [formula] using a nonlinear regression program, to determine kcat and KM (FIG. 4).

[3] = substrate: CC(C)=CCC/C(C)=C/CC/C(C)=C/CO[P@@](=O)(O)OP(=O)(O)O; details: other: single peptide concentration 2.4 μM; pH 7.5; 30.0 °C
Protocol: as §1, §2, §3

kcat lower than the kcat for FPP ([1]; compared with FPP) [fold]	substrate for the enzyme ([1]; model peptide N-dansyl-GCVIA (2))	Molecule	Km [2] [µM]	kcat [2] [s⁻¹]	Km [3] [µM]
42	alternative substrate	C#Cc1cc(C=O)cc(OC/C(C)=C/CC/C(C)=C/COP(=O)(O)OP(=O)(O)O)c1 [Compound 1, (2E,6E)-8-(3-ethynyl-5-formylphenoxy)-3,7-dimethylocta-2,6-dien-1-yl diphosphate]			
		PFTase (Saccharomyces cerevisiae S288C) (protein, made in house) chain 1: MRQRVGRSIARAKFINTALLGRKRPVMERVVDIAHVDSSKAIQPLMKELETDTTEARYKVLQSVLEIYDDEKNIEPALTKEFHKMYLDVAFEISLPPQMTALDASQPWMLYWIANSLKVMDRDWLSDDTKRKIVDKLFTISPSGGPFGGGPGQLSHLASTYAAINALSLCDNIDGCWDRIDRKGIYQWLISLKEPNGGFKTCLEVGEVDTRGIYCALSIATLLNILTEELTEGVLNYLKNCQNYEGGFGSCPHVDEAHGGYTFCATASLAILRSMDQINVEKLLEWSSARQLQEERGFCGRSNKLVDGCYSFWVGGSAAILEAFGYGQCFNKHALRDYILYCCQEKEQPGLRDKPGAHSDFYHTNYCLLGLAVAESSYSCTPNDSPHNIKCTPDRLIGSSKLTDVNPVYGLPIENVRKIIHYFKSNLSSPS chain 2: MEEYDYSDVKPLPIETDLQDELCRIMYTEDYKRLMGLARALISLNELSPRALQLTAEIIDVAPAFYTIWNYRFNIVRHMMSESEDTVLYLNKELDWLDEVTLNNPKNYQIWSYRQSLLKLHPSPSFKRELPILKLMIDDDSKNYHVWSYRKWCCLFFSDFQHELAYASDLIETDIYNNSAWTHRMFYWVNAKDVISKVELADELQFIMDKIQLVPQNISPWTYLRGFQELFHDRLQWDSKVVDFATTFIGDVLSLPIGSPEDLPEIESSYALEFLAYHWGADPCTRDNAVKAYSLLAIKYDPIRKNLWHHKINNLN	2.52	0.0123	1.71
